Experimental data taken from patent US20080182247A1.

Target: CD70 (human) (UniProt P32970)
Assay: cell-based or functional assay

Chain of CD70 (human) (P32970 whole entry): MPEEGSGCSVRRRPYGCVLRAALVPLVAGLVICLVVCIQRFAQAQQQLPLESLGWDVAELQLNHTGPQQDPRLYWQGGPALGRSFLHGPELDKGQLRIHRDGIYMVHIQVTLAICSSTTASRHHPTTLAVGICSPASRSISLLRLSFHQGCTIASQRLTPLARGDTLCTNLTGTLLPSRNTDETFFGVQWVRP

“anti-CD70 monoclonal antibody (HNE51) (DAKO)” showed an IgG synthesis by purified B cells stimulated with LPS (control without T cells) of 125 µg/mL.
